Among the data in patent US20250250335A1 are OD values, retold here.

Several values for one entry are separate records, joined by “and”; a condition that tells them apart may be missing. Equal values may be shown once.

For this experiment, the target named is T1, mouse CEACAM5 (mouse) (UniProt Q3UKK2).
T1 sequence (looked up): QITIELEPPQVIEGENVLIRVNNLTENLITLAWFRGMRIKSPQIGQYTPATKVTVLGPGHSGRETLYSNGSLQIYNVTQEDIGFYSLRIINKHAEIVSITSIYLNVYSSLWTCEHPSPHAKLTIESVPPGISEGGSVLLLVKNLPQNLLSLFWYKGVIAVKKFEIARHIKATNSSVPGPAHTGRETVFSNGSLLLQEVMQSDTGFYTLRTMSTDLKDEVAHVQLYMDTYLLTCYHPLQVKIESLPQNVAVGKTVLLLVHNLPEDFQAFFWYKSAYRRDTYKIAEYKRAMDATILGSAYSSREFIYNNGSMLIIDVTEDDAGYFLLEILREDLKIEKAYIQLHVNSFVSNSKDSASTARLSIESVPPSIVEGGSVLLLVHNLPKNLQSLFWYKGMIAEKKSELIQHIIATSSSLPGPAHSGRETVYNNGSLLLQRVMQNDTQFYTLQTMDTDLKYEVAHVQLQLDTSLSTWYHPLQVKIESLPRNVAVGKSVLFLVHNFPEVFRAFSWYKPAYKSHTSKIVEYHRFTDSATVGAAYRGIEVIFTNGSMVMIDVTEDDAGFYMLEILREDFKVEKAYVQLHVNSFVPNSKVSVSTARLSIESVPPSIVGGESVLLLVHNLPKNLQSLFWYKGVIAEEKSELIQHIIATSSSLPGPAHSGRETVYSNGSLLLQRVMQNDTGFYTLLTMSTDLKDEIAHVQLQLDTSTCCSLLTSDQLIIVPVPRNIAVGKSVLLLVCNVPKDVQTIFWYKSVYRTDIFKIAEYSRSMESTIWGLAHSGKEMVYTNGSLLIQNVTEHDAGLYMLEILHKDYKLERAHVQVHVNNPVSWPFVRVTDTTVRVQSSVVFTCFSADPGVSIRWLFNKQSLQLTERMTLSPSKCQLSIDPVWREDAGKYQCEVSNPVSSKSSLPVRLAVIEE
Description: ELISA on coated protein, OD450. (An ELISA detects its analyte on a solid surface through an enzyme-linked reagent.)

B1: Antibody 7 (antibody, V domains shown)
VH: QIQLVQSGPELKKPGETVKISCKASGYTFTDYGMNWVKQAPGKGLKWMGWINTYTGEPTYPDDFKGRFAFSLETSATTAYLQINNLKNEDTATYFCSRGDLLVRLDNWGQGTTLTVSS
VL: DIQMTQSPSSLSASLGGKVTITCKASQDINKYISWYQHKPGKGPRLLIHYTSTLQSGIPSRFSGSGSGRDYSFSISNLEPEDIATYYCLQYDYLRTFGGGTKLEIK
Regarding B1, the OD was 0.31 OD and 0.24 OD.
